From patent US20190218261A1, “TARGETED ENHANCED DNA DEMETHYLATION” (The Jackson Laboratory, priority 2016, published 2019)

Tested on: hMLH1 expression (methylation-silenced hMLH1 promoter) in HEK293T cells
Test: hMLH1 mRNA levels by TaqMan qRT-PCR in transfected HEK293T cells
Type: cell-based, human
Protocol: To test the system, HEK293T cells were transfected with Casilio-ME components including Ct or Nt-fusion TET1-effector and a combination of 3 or 2 sgRNAs. Relative levels of hMLH1 mRNA were determined in TaqMan assays by using RNA extracted from cells 60 hours post-transfection and GAPDH as endogenous control for normalization of qRT-PCR measurements.
Cell culture and transfection. HEK293T cells were cultivated in Dulbecco's modified Eagle's medium (DMEM)(Sigma) with 10% fetal bovine serum (FBS)(Lonza), 4% Glutamax (Gibco), 1% Sodium Pyruvate (Gibco) and penicillin-streptomycin (Gibco) in an incubator set to 37° C. and 5% CO2. When indicated cells were treated with 2.5 μM or 5 μM 5-Azacytidine (sigma) as indicated with a daily change of medium containing freshly diluted drug. Cells were seeded into 12-well plates at 150,000 cells per well the day before being transfected with 100 ng of dCas9 construct, 100 ng of modified sgRNA construct and 200 ng of PUF-fusion with Attractene transfection reagent according to manufacturer's instructions (Qiagen). In dCas9-direct fusion experiments, cells were transfected with 200 ng dCas9-fusion constructs and 200 ng of modified sgRNA constructs. Transfected cells were harvested 60 hours after transfection, or otherwise indicated, and cell pellets were used for extractions of RNA, genomic DNA and protein.
Quantitative RT-PCR analysis. Cells were harvested, washed with Dulbecco's phosphate-buffered saline (dPBS), centrifuged at 125×g for 5 min and then the flash-frozen pellets were stored at −80° C. RNA was extracted using RNeasy Plus Mini Kit according to the manufacturer's instructions (Qiagen). cDNA libraries were made using Applied Biosystems High Capacity RNA-to-cDNA kit with 200 ng to 1 μg of RNA. TaqMan gene expression assays (Applied Biosystems) were designed using GAPDH (Hs03929097, VIC) as endogenous control and hMLH1 (Hs00179866, FAM) as target. TaqMan Universal Master Mix II, with UNG (Applied Biosystems) was used for Quantitative PCR (qPCR), with 2 μl of diluted cDNA used for each reaction. Activation was analyzed with the Applied Biosystems ViiA7 instrument. Gene expression levels were calculated by “delta delta Ct” algorithm and normalized to control samples.
HEK293T cells were cultivated in Dulbecco's modified Eagle's medium (DMEM) (Sigma) with 10% fetal bovine serum (FBS) (Lonza), 4% Glutamax (Gibco), 1% Sodium Pyruvate (Gibco) and penicillin-streptomycin (Gibco) in an incubator set to 37° C. and 5% CO2. Cells were seeded into 12-well plates at 150,000 cells per well the day before being transfected with 100 ng of dCas9 construct, 100 ng of modified sgRNA construct and 200 ng of PUF-fusion with Attractene transfection reagent according to manufacturer's instructions (Qiagen). Transfected cells were harvested 3 days after transfection, or otherwise indicated, and cell pellets were used for RNA extractions.
Cells were harvested, washed with Dulbecco's phosphate-buffered saline (dPBS), centrifuged at 125×g for 5 min and then the flash-frozen pellets were stored at −80° C. RNA was extracted using RNeasy Plus Mini Kit according to the manufacturer's instructions (Qiagen). cDNA libraries were made using Applied Biosystems High Capacity RNA-to-cDNA kit with 200 ng to 2 μg of RNA. TaqMan gene expression assays (Applied Biosystems) were designed using GAPDH (Hs03929097, VIC) as endogenous control and hMLH1 (Hs00179866, FAM) as target. TaqMan Universal Master Mix II, with UNG (Applied Biosystems) was used for Quantitative PCR (qPCR), with 2 μl of diluted cDNA used for each reaction. Activation was analyzed with the Applied Biosystems ViiA7 instrument. Gene expression levels were calculated by “delta delta Ct” algorithm and normalized to control samples.

B1: NEIL2: NEIL2 glycosylase enhancer, tested fused to PUFa-TET1(CD) (either PUFa terminus) or to PUFc (protein)
chain: MLPEGPLVRKFHHLVSPFVGQQVVKTGGSSKKLQPASLQSLWLQDTQVHGKKLFLRFDLDEEMGPPGSSPTPEPPQKEVQKEGAADPKQVGEPSGQKTLDGSSRSAELVPQGEDDSEYLERDAPAGDAGRWLRVSFGLFGSVWVNDFSRAKKANKRGDWRDPSPRLVLHFGGGGFLAFYNCQLSWSSSPVVTPTCDILSEKFHRGQALEALGQAQPVCYTLLDQRYFSGLGNIIKNEALYRAGIHPLSLGSVLSASRREVLVDHVVEFSTAWLQGKFQGRPQHTQVYQKEQCPAGHQVMKEAFGPEDGLQRLTWWCPQCQPQLSEEPEQCQFS
B1 was tested, and the “increase in gene activation with NEIL2 in the PUFa-TET1CD fusion (repeat experiment)” value (MLH1 gRNAs, NEIL2 at either PUFa terminus) was “four-fold increase in gene activation”, the “increase in hMLH1 expression with NEIL2 fused to PUFc” value (co-expressed with PUFa-TET1(CD), gRNAs with PBSa/c, RT-quantitative PCR) was 7 fold and the “hMLH1 activation by DNA glycosylase two-in-one effector fusions (in words)” value (fusions to PUFa-TET1(CD), gRNA 5xPBSa, HEK293T, 3 days) was “enhanced activation of hMLH1”. The “effect on TET1-mediated gene activation when gRNA lacked PBSc” value (gRNA scaffold with PBSa only) was “no effect on TET1-mediated gene activation” and the “hMLH1 activation relative to TET1 effector alone” value (two-in-one fusion to PUFa-TET1(CD)) was 3 fold.

B2: TET1(CD)(H1671Y D1673A)-PUFa: catalytically dead TET1(CD) PUFa fusion; SEQ ID NO:110 (protein)
chain: MIDGGGGSDPKKKRKVDPKKKRKVDPKKKRKVGSTGSRNDGGGGSGGGGSGGGGSGRAGILPPKKKRKVSRGRSRLLEDFRNNRYPNLQLREIAGHIMEFSQDQHGSRFIQLKLERATPAERQLVFNEILQAAYQLMVDVFGNYVIQKFFEFGSLEQKLALAERIRGHVLSLALQMYGSRVIEKALEFIPSDQQNEMVRELDGHVLKCVKDQNGNHVVQKCIECVQPQSLQFIIDAFKGQVFALSTHPYGCRVIQRILEHCLPDQTLPILEELHQHTEQLVQDQYGNYVIQHVLEHGRPEDKSKIVAEIRGNVLVLSQHKFASNVVEKCVTHASRTERAVLIDEVCTMNDGPHSALYTMMKDQYANYVVQKMIDVAEPGQRKIVMHKIRPHIATLRKYTYGKHILAKLEKYYMKNGVDLGDPKKKRKVDPKKKRKVGGRGGGGSGGGGSGGGGSGPAELPTCSCLDRVIQKDKGPYYTHLGAGPSVAAVREIMENRYGQKGNAIRIEIVVYTGKEGKSSHGCPIAKWVLRRSSDEEKVLCLVRQRTGHHCPTAVMVVLIMVWDGIPLPMADRLYTELTENLKSYNGHPTDRRCTLNENRTCTCQGIDPETCGASFSFGCSWSMYFNGCKFGRSPSPRRFRIDPSSPLHEKNLEDNLQSLATRLAPIYKQYAPVAYQNQVEYENVARECRLGSKEGRPFSGVTACLDFCAHPYRAIHNMNNGSTVVCTLTREDNRSLGVIPQDEQLHVLPLYKLSDTDEFGSKEGMEAKIKSGAIEVLAPRRKKRTCFTQPVPRSGKKRAAMMTEVLAHKIRAVEKKPIPRIKRKNNSTTTNNSKPSSLPTLGSNTETVQPEVKSETEPHFILKSSDNTKTYSLMPSAPHPVKEASPGFSWSPKTASATPAPLKNDATASCGFSERSSTPHCTMPSGRLSGANAAAADGPGISQLGEVAPLPTLSAPVMEPLINSEPSTGVTEPLTPHQPNHQPSFLTSPQDLASSPMEEDEQHSEADEPPSDEPLSDDPLSPAEEKLPHIDEYWSDSEHIFLDANIGGVAIAPAHGSVLIECARRELHATTPVEHPNRNHPTRLSLVFYQHKNLNKPQHGFELNKIKFEAKEAKNKKMKASEQKDQAANEGPEQSSEVNELNQIPSHKALTLTHDNVVTVSPYALTHVAGPYNHWVID
B2 was tested, and the “hMLH1 expression without TET1 catalytic activity” value (GADD45A expressed with catalytically dead TET1(CD) fusion or without TET1(CD) fusion) was “no hMLH1 expression was detected”.

B3: PUFc-NEIL2: SEQ ID NO:127 (protein)
chain: MIDGGGGSDPKKKRKVDPKKKRKVDPKKKRKVGSTGSRNDGGGGSGGGGSGGGGSGRAGILPPKKKRKVSRGRSRLLEDFRNNRYPNLQLREIAGHIMEFSQDQHGSRFIQLKLERATPAERQLVFNEILQAAYQLMVDVFGNYVIQKFFEFGSLEQKLALAERIRGHVLSLALQMYGSRVIEKALEFIPSDQQNEMVRELDGHVLKCVKDQNGNHVVQKCIECVQPQSLQFIIDAFKGQVFALSTHPYGCRVIQRILEHCLPDQTLPILEELHQHTEQLVQDQYGSYVIEHVLEHGRPEDKSKIVAEIRGNVLVLSQHKFANNVVQKCVTHASRTERAVLIDEVCTMNDGPHSALYTMMKDQYANYVVQKMIDVAEPGQRKIVMHKIRPHIATLRKYTYGKHILAKLEKYYMKNGVDLGDPKKKRKVDPKKKRKVGGRGGGGSGGGGSGGGGSGPALPEGPLVRKFHHLVSPFVGQQVVKTGGSSKKLQPASLQSLWLQDTQVHGKKLFLRFDLDEEMGPPGSSPTPEPPQKEVQKEGAADPKQVGEPSGQKTLDGSSRSAELVPQGEDDSEYLERDAPAGDAGRWLRVSFGLFGSVWVNDFSRAKKANKRGDWRDPSPRLVLHFGGGGFLAFYNCQLSWSSSPVVTPTCDILSEKFHRGQALEALGQAQPVCYTLLDQRYFSGLGNIIKNEALYRAGIHPLSLGSVLSASRREVLVDHVVEFSTAWLQGKFQGRPQHTQVYQKEQCPAGHQVMKEAFGPEDGLQRLTWWCPQCQPQLSEEPEQCQFS
In the case of B3, the “stimulation of TET1(CD) mediated hMLH1 activation by independent NEIL2 module” value (dual expression with PUFa-TET1(CD), gRNAs with both PBSa/c) is reported as “significant stimulation of the TET1(CD) mediated hMLH1 activation”.
